Experimental data: US20250320480A1, “Immunoglobulin Cleaving Enzyme” (priority 2021, published 2025)
Entries after “also recorded” stand apart in the source; their conditions may differ. Non-standard residues stand in square brackets, D forms with d. Residues, ends and D or L forms follow the SMILES beside them. *: point of attachment. Sta = CC(C)C[C@H](N)[C@@H](O)CC(=O)O; Isovaleryl = CC(C)CC(=O)*

Legend:
[1] = tested on: casein; test: General protease activity, EnzChek protease assay; assay type: biochemical; conditions: casein substrate; FabULOUS 5 μg, FabRICATOR 10 μg, IdeSORK2.0 10 μg
Protocol: FIG. 2. General protease activity. General protease activity was measured with the EnzCHECK protease assay, using casein as a substrate.
General protease activity was determined using the EnzChek Protease Assay kit, according to manufacturer's instructions. As a positive control the general protease FabULOUS (SpeB, 5 μg) was used, and as a negative control the IgG-specific protease FabRICATOR (IdeS, 10 μg). IdeSORK2.0 was added to a total quantity of 10 μg.

[2] = tested on: IdeSork2.0; test: Protease inhibitor assay; assay type: biochemical, Streptococcus krösus; conditions: IgG1 pre-incubated with inhibitor, IdeSork2.0 1:5, overnight at 37° C., SDS-PAGE
Protocol: FIG. 4. Protease inhibitor sensitivity of IdeSork2.0.
IgG1 (trastuzumab) was pre-incubated with a set of protease inhibitors (G-Biosciences) before addition of IdeSork2.0 (of SEQ ID NO: 3) (1:5), and the mixture was allowed to incubate overnight at 37° C. before analysis on SDS-PAGE.

[3] = molecular target: human IgG2
[4] = molecular target: human IgG1
[5] = tested on: IgG in human serum; test: Activity of IgG hydrolases in human serum; assay type: biochemical; conditions: serum (100%), E:S 1:40, 0-4 hours at 37° C., non-reduced SDS-PAGE
Protocol: FIG. 15. Activity of IgG hydrolases in human serum. Serum (100%) was spiked with IgG hydrolases and activity was analyzed over time using non-reduced SDS-PAGE.
For serum activity assays, an E: S ratio of 1:40 (assuming 10 mg/mL IgG in serum) was used, incubating 0-4 hours at 37° C. before analysis on a non-reduced SDS-PAGE. All enzymes were supplied by Genovis AB.

[6] = tested on: IgG1; test: Comparison to other IgG proteases: IgG1; assay type: biochemical; conditions: SDS-PAGE
Protocol: (§1) FIG. 10. IdeSork2.0 is having a similar activity compared to IdeS and IdeZ. To investigate if IdeSork2.0 is hydrolyzing IgG in a similar way as IdeS and IdeZ they were all incubated against IgG1 and IgG2 and analyzed on SDS-PAGE. The cleavage patterns look identical, with both IdeSork2.0 and IdeS having less activity towards IgG2.
(§2) To further look into the activity of IdeSORK2.0, its activity was compared with IdeS and IdeZ against both IgG1 and IgG2.

[7] = tested on: IgG2; test: Comparison to other IgG proteases: IgG2; assay type: biochemical; conditions: SDS-PAGE
Protocol: as §1, §2

[8] = tested on: human IgG; conditions: in particular when cleaving IgG2; cited from earlier work
[9] = molecular target: IVIG
[10] = molecular target: horse IgG
[11] = molecular target: dog IgG
[12] = molecular target: porcine IgG
[13] = molecular target: rat IgG
[14] = molecular target: cow IgG
[15] = molecular target: mouse IgG2b
[16] = molecular target: denatured and reduced IgG
[17] = molecular target: sheep IgG
[18] = molecular target: IgG
[19] = molecular target: guinea pig IgG
[20] = molecular target: mouse IgG2a
[21] = molecular target: monoclonal IgG4
[22] = molecular target: human IgA
[23] = molecular target: mouse IgG1

With “FabULOUS: general protease (SpeB), positive control [reference compound]” the “General protease activity (signal)” value [1] was “high signal”.

For CC(C)CC(=O)N[C@H](C(=O)N[C@H](C(=O)N[C@@H](CC(C)C)[C@@H](O)CC(=O)N[C@@H](C)C(=O)N[C@@H](CC(C)C)[C@@H](O)CC(=O)O)C(C)C)C(C)C [pepstatin] (Isovaleryl-VV[Sta]A[Sta]-OH), the “Inhibition of IdeSork2.0 hydrolysis of IgG1 (trastuzumab)” value (shortened to “Inhibition”) [2] was “besides aprotinin, EDTA, and pepstatin”.

For aprotinin, the “Inhibition” value [2] was “besides aprotinin, EDTA, and pepstatin”.

In the case of O=C(O)CN(CCN(CC(=O)O)CC(=O)O)CC(=O)O [EDTA], the “Inhibition” value [2] is reported as “unaffected; also recorded: besides aprotinin, EDTA, and pepstatin”.

In the case of CC(C)C[C@H](NC(=O)[C@@H](O)[C@H](N)Cc1ccccc1)C(=O)O [Bestatin], the “Inhibition” value [2] is reported as “only partly inhibitory”.

B1: IdeS (Immunoglobulin G-degrading enzyme of S. pyogenes) (protein)
chain: DSFSANQEIRYSEVTPYHVTSVWTKGVTPPANFTQGEDVFHAPYVANQGWYDITKTFNGKDDLLCGAATAGNMLHWWFDQNKDQIKRYLEEHPEKQKINFNGEQMFDVKEAIDTKNHQLDSKLFEYFKEKAFPYLSTKHLGVFPDHVIDMFINGYRLSLTNHGPTPVKEGSKDPRGGIFDAVFTRGDQSKLLTSRHDFKEKNLKEISDLIKKELTEGKALGLSHTYANVRINHVINLWGADFDSNGNLKAIYVTDSDSNASIGMKKYFVGVNSAGKVAISAKEIKEDNIGAQVLGLFTLSTGQDSWNQTN
For B1, the “hydrolysis of IgG, SDS-PAGE” value [3] was “All enzymes were able to hydrolyze the antibodies in seemingly an identical fashion, though slightly different efficiently” and the “hydrolysis of IgG, SDS-PAGE” value [4] was “All enzymes were able to hydrolyze the antibodies in seemingly an identical fashion, though slightly different efficiently”.

B2: IdeS: Immunoglobulin G-degrading enzyme of S. pyogenes, IgG-specific cysteine protease (protein)
chain: B1 chain
In the case of B2, the “Immunoglobulin cleavage activity in the presence of human serum” value [5] is reported as “immunoglobulin cleavage activity”, the “General protease activity (signal)” value [1] is reported as “almost no signal” and the “Hydrolysis of IgG1” value [6] is reported as “able to hydrolyze”. For the same molecule, the “Hydrolysis of IgG2” value [7] was “able to hydrolyze; also recorded: less activity”.

B3: IdeZ (protein)
chain: DDYQRNATEAYAKEVPHQITSVWTKGVTPLTPEQFRYNNEDVIHAPYLAHQGWYDITKAFDGKDNLLCGAATAGNMLHWWFDQNKTEIEAYLSKHPEKQKIIFNNQELFDLKAAIDTKDSQTNSQLFNYFRDKAFPNLSARQLGVMPDLVLDMFINGYYLNVFKTQSTDVNRPYQDKDKRGGIFDAVFTRGDQTTLLTARHDLKNKGLNDISTIIKQELTEGRALALSHTYANVSISHVINLWGADFNAEGNLEAIYVTDSDANASIGMKKYFVGINAHGHVAISAKKIEGENIGAQVLGLFTLSSGKDIWQKLS
In the case of B3, the “hydrolysis of IgG, SDS-PAGE” value [3] is reported as “All enzymes were able to hydrolyze the antibodies in seemingly an identical fashion, though slightly different efficiently” and the “hydrolysis of IgG, SDS-PAGE” value [4] is reported as “All enzymes were able to hydrolyze the antibodies in seemingly an identical fashion, though slightly different efficiently”.

B4: IdeZ: IgG cysteine protease produced by Streptococcus equi ssp. zooepidemicus (protein)
chain: B3 chain
For B4, the “Immunoglobulin cleavage activity in the presence of human serum” value [5] is listed as “immunoglobulin cleavage activity”, the “IgG cysteine protease activity against human IgG” value [8] is listed as “considerably lower than that of IdeS” and the “Hydrolysis of IgG1” value [6] is listed as “able to hydrolyze”. For the same molecule, the “Hydrolysis of IgG2” value [7] was “able to hydrolyze”.

B5: IdeSORK2.0 (protein)
chain: MSKRKLLKKIEKKDTSSVLTQKKQTKTLWADGVQVDDKDFKPSTENFGTNYLAAEYGIGKGYYDINKKFDGTDDDLCSGVVAANQLHWWLDRNKDYIEKYRQQSKDNGVTIGNTDIFELNKLHDEDQSNFFDFIKKSFGNKFLQPERLLNMYINGYGYLTSQDKAKTSQPSPSKLNFFQKVFKNNLLTDKTPINDIDEFSSQTKNALQNHKVLAVSFASIKNRGLGHVVTVWGADFDENGKVVALYVTDSDDRSKNIGNAKLGMKKLRIEVSAQDSSTIKLTGFEDKNSGGSLRHLYSLSTGEQIWKKYFEETHHHHHH
In the case of B5, the “hydrolysis of IgG” value [9] is reported as “Incubation with polyclonal IgG (e.g. IVIG) resulted in near complete hydrolysis”, the “hydrolysis of IgG, SDS-PAGE” value [10] is reported as “only showed activity against horse and guinea pig IgG” and the “hydrolysis of IgG, SDS-PAGE” value [11] is reported as “only showed activity against horse and guinea pig IgG (no activity on dog IgG)”. The “hydrolysis of IgG, SDS-PAGE” value [12] was “only showed activity against horse and guinea pig IgG (no activity on porcine IgG)”, the “hydrolysis of IgG, SDS-PAGE” value [13] was “only showed activity against horse and guinea pig IgG (no activity on rat IgG)” and the “hydrolysis of IgG, SDS-PAGE” value [14] was “only showed activity against horse and guinea pig IgG (no activity on cow IgG)”. For the same molecule, the “hydrolysis of IgG, SDS-PAGE” value [15] was “but not mIgG1 or mIgG2b”, the “hydrolysis of IgG, SDS-PAGE” value [16] was “IdeSORK2.0 is not active against denatured and reduced IgG” and the “hydrolysis of IgG, SDS-PAGE” value [17] was “only showed activity against horse and guinea pig IgG (no activity on sheep IgG)”. For the same molecule, the “percentage hydrolysis of IgG” value [18] was “A ratio of 1:40 hydrolyzes >95% of IgG in 30-60 minutes”, the “hydrolysis of IgG, SDS-PAGE” value [19] was “only showed activity against horse and guinea pig IgG” and the “hydrolysis of IgG, SDS-PAGE” value [20] was “the protease is active against mIgG2a”. The “hydrolysis of IgG, SDS-PAGE” value [21] was “can also hydrolyze monoclonal IgG4”, the “hydrolysis, SDS-PAGE” value [22] was “IdeSORK2.0 is not active towards IgA” and the “hydrolysis of IgG, SDS-PAGE” value [23] was “but not mIgG1 or mIgG2b”.
